The target in test [1] is EYFP-CD74minRTS (pEYFP-C1-CD74minRTS) (human) (UniProt P04233). The experiment in a line: FRET or BRET; FLIM-FRET (TCSPC, two-photon microscope, FALCON) in fixed HEK293 cells co-transfected with ECFP-CXCR4 (donor) and EYFP-CD74 (acceptor). For orientation: Bioluminescence resonance energy transfer reports proximity on the nanometre scale.
Test [2] shares this target. The experiment in a line: FRET or BRET; FLIM-FRET (TCSPC, two-photon microscope, FALCON) in fixed Huh-7 cells co-transfected with ECFP-CXCR4 (donor) and EYFP-CD74 (acceptor); donor-alone lifetime 2.52 ns used; also with MIF-2 stimulation before fixation (FRET efficiency increased).
The target is the same in test [3]. The test can be described thus: FRET or BRET; FLIM-FRET in live HEK293 cells co-transfected with ECFP-CXCR4 and EYFP-CD74, monitored at one-minute intervals during exposure to MIF-2 (4 nM, 10 min, 37 °C); MIF (8 nM) as comparison reduced the lifetime to a lesser extent.

The record followed here is article PMC11889166.

Sequence of UniProt P04233 (P04233 whole entry): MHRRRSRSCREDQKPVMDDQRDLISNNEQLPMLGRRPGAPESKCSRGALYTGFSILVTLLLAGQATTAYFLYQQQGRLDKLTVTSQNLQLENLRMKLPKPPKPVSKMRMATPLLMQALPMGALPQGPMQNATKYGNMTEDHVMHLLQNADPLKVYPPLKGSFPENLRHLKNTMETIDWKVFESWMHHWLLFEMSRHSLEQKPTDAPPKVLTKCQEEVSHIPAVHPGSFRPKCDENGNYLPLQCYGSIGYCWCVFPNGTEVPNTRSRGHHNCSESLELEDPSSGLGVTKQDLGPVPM

In the case of “ECFP-tagged CXCR4 (pECFP-N1-CXCR4) (from UniProt P61073 1-352) (receptor)”, the results for the FRET efficiency in test [1] and in test [2] were 50% and 17 to 20%, respectively. Also, the fluorescence lifetime of the donor ECFP-CXCR4 with the acceptor, after MIF-2 stimulation in test [3] was determined as 2 ns.
